Measurements as given in the supplement of paper PMC9876800.

Tested on: peptide library, one residue held at a place counted from the S/T acceptor
Assay: relative phosphorylation of the sub-library (ratio to the mean residue at this position); higher = residue favoured
Summary of the method: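 Purified recombinant kinases (human or orthologue constructs) were incubated in 384-well plates with biotinylated degenerate peptide sub-libraries, each fixing one residue at one position around a central Ser/Thr. Peptides were at 50 μM, with 50 μM ATP spiked with γ-32P-ATP, for 90 min under kinase-specific conditions. Spots on streptavidin membranes were phosphorimaged and quantified by densitometry. Relative sub-library phosphorylation is a ratio to the mean residue at that position.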

BRSK1, construct: Full length, human, sequence (Q8TDC3 whole entry, looked up): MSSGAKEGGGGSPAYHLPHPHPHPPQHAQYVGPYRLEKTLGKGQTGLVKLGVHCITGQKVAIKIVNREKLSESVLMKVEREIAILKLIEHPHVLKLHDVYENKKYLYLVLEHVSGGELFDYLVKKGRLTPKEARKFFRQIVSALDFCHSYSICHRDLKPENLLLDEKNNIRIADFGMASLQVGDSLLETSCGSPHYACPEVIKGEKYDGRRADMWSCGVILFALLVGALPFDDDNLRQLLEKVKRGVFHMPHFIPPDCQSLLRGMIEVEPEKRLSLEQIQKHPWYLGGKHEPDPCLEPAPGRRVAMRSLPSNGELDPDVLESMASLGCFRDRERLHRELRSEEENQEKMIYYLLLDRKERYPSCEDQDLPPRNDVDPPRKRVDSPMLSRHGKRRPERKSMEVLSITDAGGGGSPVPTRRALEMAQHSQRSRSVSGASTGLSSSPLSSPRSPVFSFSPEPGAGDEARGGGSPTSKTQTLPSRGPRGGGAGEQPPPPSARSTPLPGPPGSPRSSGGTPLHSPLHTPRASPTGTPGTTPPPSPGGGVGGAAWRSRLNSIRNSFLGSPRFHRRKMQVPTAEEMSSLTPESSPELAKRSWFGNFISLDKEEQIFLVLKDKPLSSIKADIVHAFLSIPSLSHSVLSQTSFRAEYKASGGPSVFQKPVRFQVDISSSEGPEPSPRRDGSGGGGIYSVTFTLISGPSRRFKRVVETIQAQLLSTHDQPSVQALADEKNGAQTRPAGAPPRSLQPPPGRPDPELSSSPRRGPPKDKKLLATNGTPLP
CAMK1G, construct: aa4-312, human, sequence (Q96NX5 4-312, looked up): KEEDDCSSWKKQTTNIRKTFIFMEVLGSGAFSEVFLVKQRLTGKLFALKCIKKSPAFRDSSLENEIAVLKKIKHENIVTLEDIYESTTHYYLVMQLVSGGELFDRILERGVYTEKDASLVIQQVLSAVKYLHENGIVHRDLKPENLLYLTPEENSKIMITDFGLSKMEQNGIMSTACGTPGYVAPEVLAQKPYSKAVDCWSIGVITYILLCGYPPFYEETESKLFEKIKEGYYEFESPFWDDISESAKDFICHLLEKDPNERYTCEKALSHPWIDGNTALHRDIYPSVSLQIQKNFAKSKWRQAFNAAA

BRSK1, construct: Full length, human (from UniProt Q8TDC3)
relative phosphorylation
Conditions | at +1 | at +2 | at +3 | at +4 | at -1 | at -2 | at -3 | at -4 | at -5
A fixed | 0.673 | 0.575 | 0.697 | 0.51 | 1.03 | 2.4 | 0.781 | 1.28 | 1.05
D fixed | 0.631 | 0.801 | 2.83 | 0.644 | 0.813 | 0.773 | 0.334 | 0.552 | 0.451
E fixed | 0.649 | 0.672 | 0.947 | 0.556 | 0.748 | 0.6 | 0.374 | 0.678 | 0.494
F fixed | 1.67 | 1.41 | 1.4 | 1.09 | 0.72 | 1.04 | 0.522 | 0.648 | 1.12
G fixed | 0.458 | 0.349 | 0.67 | 0.572 | 1.24 | 1.12 | 0.616 | 1.29 | 0.961
H fixed | 0.966 | 1.64 | 1.02 | 0.623 | 1.08 | 1 | 1.1 | 1.19 | 0.765
I fixed | 0.636 | 0.435 | 0.353 | 3.13 | 0.494 | 0.534 | 0.235 | 0.422 | 0.943
K fixed | 0.703 | 0.256 | 0.669 | 0.597 | 1.24 | 1.25 | 2.41 | 2.03 | 1.25
L fixed | 1.12 | 0.672 | 0.529 | 2.95 | 0.951 | 0.476 | 0.32 | 0.56 | 1.09
M fixed | 3.06 | 0.841 | 0.614 | 1.67 | 1.17 | 0.627 | 0.546 | 0.829 | 1.55
N fixed | 1.08 | 1.1 | 2.82 | 0.835 | 0.94 | 0.902 | 0.596 | 0.699 | 0.637
P fixed | 0.306 | 0.467 | 0.32 | 0.628 | 1.53 | 0.735 | 0.673 | 1.48 | 0.939
Q fixed | 1.18 | 1.13 | 1.15 | 0.714 | 0.996 | 0.734 | 0.755 | 0.985 | 0.829
R fixed | 0.985 | 0.357 | 0.729 | 0.575 | 1.34 | 1.7 | 6.17 | 2.19 | 2.01
V fixed | 0.73 | 0.381 | 0.405 | 0.861 | 0.75 | 1.01 | 0.311 | 0.678 | 0.857
W fixed | 0.787 | 2.02 | 0.804 | 0.59 | 0.696 | 1.12 | 0.667 | 0.774 | 0.911
Y fixed | 1.37 | 3.9 | 1.04 | 0.465 | 1.26 | 0.984 | 0.586 | 0.726 | 1.14
pThr fixed | 1.81 | 0.59 | 0.438 | 0.686 | 0.407 | 0.465 | 0.392 | 0.723 | 0.544
pTyr fixed | 0.633 | 0.948 | 0.928 | 0.475 | 1.75 | 0.606 | 0.657 | 0.678 | 0.776

CAMK1G, construct: aa4-312, human (from UniProt Q96NX5)
relative phosphorylation
Conditions | at +1 | at +2 | at +3 | at +4 | at -1 | at -2 | at -3 | at -4 | at -5
A fixed | 0.642 | 0.76 | 0.621 | 0.551 | 0.799 | 0.862 | 0.549 | 0.716 | 0.628
D fixed | 0.415 | 0.664 | 0.754 | 0.687 | 0.868 | 0.426 | 0.285 | 0.428 | 0.451
E fixed | 0.379 | 0.584 | 0.709 | 0.651 | 0.562 | 0.421 | 0.274 | 0.548 | 0.424
F fixed | 2.19 | 0.959 | 1.5 | 1.69 | 0.634 | 0.743 | 0.545 | 0.916 | 1.01
G fixed | 0.693 | 0.541 | 0.763 | 0.665 | 0.98 | 0.927 | 0.395 | 0.754 | 0.628
H fixed | 0.691 | 1.37 | 1.2 | 0.846 | 0.991 | 0.867 | 0.602 | 1.08 | 0.879
I fixed | 0.442 | 1.1 | 0.904 | 1.09 | 0.554 | 0.413 | 0.413 | 0.913 | 1.26
K fixed | 2.37 | 1.51 | 1.22 | 1.02 | 2.43 | 1.64 | 1.95 | 2.49 | 1.38
L fixed | 0.51 | 1.09 | 1.08 | 1.99 | 0.684 | 0.554 | 0.506 | 0.979 | 2.03
M fixed | 0.931 | 0.968 | 1.01 | 1.43 | 0.723 | 1.02 | 0.68 | 0.936 | 1.29
N fixed | 0.894 | 1.18 | 1.41 | 0.972 | 1.71 | 1.03 | 0.48 | 0.833 | 0.656
P fixed | 0.305 | 0.403 | 0.435 | 0.747 | 1.17 | 0.386 | 0.343 | 0.496 | 0.933
Q fixed | 1.27 | 0.908 | 0.969 | 0.986 | 1.05 | 2.24 | 0.777 | 0.936 | 0.84
R fixed | 3.15 | 1.78 | 1.53 | 1.1 | 1.97 | 3.14 | 7.64 | 2.06 | 2.08
V fixed | 0.463 | 0.892 | 0.642 | 0.67 | 0.675 | 0.483 | 0.366 | 0.754 | 0.818
W fixed | 0.896 | 1.08 | 1.28 | 1.05 | 0.575 | 1.13 | 0.617 | 1.17 | 0.692
Y fixed | 0.756 | 1.22 | 0.981 | 0.856 | 0.63 | 0.712 | 0.581 | 0.991 | 0.982
pThr fixed | 0.933 | 1.57 | 0.938 | 1.1 | 0.856 | 0.667 | 0.447 | 0.759 | 0.579
pTyr fixed | 0.717 | 4.89 | 1.31 | 0.992 | 0.749 | 0.652 | 0.486 | 0.704 | 0.774

CDC42BPA, construct: aa1-473, human (from UniProt Q5VT25)
relative phosphorylation
Conditions | at +1 | at +2 | at +3 | at +4 | at -1 | at -2 | at -3 | at -4 | at -5
A fixed | 0.571 | 0.98 | 0.605 | 0.722 | 0.552 | 0.403 | 0.476 | 0.689 | 0.776
D fixed | 0.475 | 0.764 | 0.723 | 0.799 | 0.668 | 0.306 | 0.342 | 0.53 | 0.483
E fixed | 0.435 | 0.379 | 0.701 | 0.719 | 0.436 | 0.226 | 0.23 | 0.498 | 0.321
F fixed | 0.802 | 1.2 | 1.15 | 1.1 | 0.645 | 0.519 | 0.424 | 0.758 | 0.814
G fixed | 0.849 | 1.06 | 1.32 | 0.933 | 0.984 | 0.431 | 0.442 | 0.765 | 0.629
H fixed | 0.961 | 1.06 | 1.27 | 1.17 | 1.27 | 1.25 | 1.3 | 1.22 | 1.04
I fixed | 1.61 | 1.56 | 0.911 | 0.783 | 0.453 | 0.267 | 0.295 | 0.651 | 0.688
K fixed | 0.961 | 1.01 | 1.56 | 1.21 | 2.71 | 2.5 | 2.6 | 2.28 | 3.39
L fixed | 1.79 | 1.52 | 0.789 | 0.94 | 1.33 | 0.416 | 0.329 | 0.709 | 0.771
M fixed | 1.45 | 0.918 | 0.745 | 0.872 | 1.01 | 0.507 | 0.354 | 0.803 | 0.632
N fixed | 1.84 | 0.88 | 0.914 | 1.15 | 1.15 | 0.855 | 0.534 | 0.893 | 0.688
P fixed | 0.35 | 1.1 | 0.983 | 1.2 | 1.28 | 0.482 | 0.496 | 0.995 | 0.666
Q fixed | 1.18 | 0.681 | 1.3 | 1.06 | 1.13 | 0.973 | 0.75 | 0.847 | 0.911
R fixed | 1.17 | 0.868 | 1.01 | 1.04 | 1.45 | 5.97 | 7.05 | 3.1 | 2.99
V fixed | 0.898 | 1.08 | 0.702 | 0.777 | 0.529 | 0.292 | 0.282 | 0.641 | 0.586
W fixed | 0.867 | 0.952 | 1.12 | 1.53 | 0.605 | 0.852 | 0.622 | 0.902 | 0.809
Y fixed | 0.786 | 1.01 | 1.18 | 0.99 | 0.798 | 0.744 | 0.469 | 0.718 | 0.814
pThr fixed | 0.636 | 0.97 | 0.873 | 1.38 | 0.283 | 0.304 | 0.369 | 0.547 | 0.552
pTyr fixed | 1.24 | 0.795 | 0.785 | 1.13 | 0.396 | 0.353 | 0.378 | 0.441 | 0.391

CDK5, construct: Full length, human (from UniProt Q00535)
relative phosphorylation
Conditions | at +1 | at +2 | at +3 | at +4 | at -1 | at -2 | at -3 | at -4 | at -5
A fixed | 0.423 | 1.13 | 0.791 | 1.07 | 1.16 | 1.08 | 1.05 | 1.15 | 1.22
D fixed | 0.262 | 0.357 | 0.165 | 0.478 | 0.753 | 0.717 | 0.92 | 1.1 | 1.24
E fixed | 0.305 | 0.516 | 0.12 | 0.512 | 0.747 | 0.842 | 1.02 | 0.993 | 1.03
F fixed | 0.227 | 0.765 | 0.485 | 0.679 | 0.557 | 0.765 | 0.65 | 0.801 | 0.925
G fixed | 1.25 | 1.06 | 0.809 | 1.56 | 1.86 | 1.21 | 1.47 | 1.47 | 1.35
H fixed | 0.344 | 1.19 | 3.07 | 1.27 | 0.925 | 1.03 | 1.12 | 1.05 | 1.03
I fixed | 0.261 | 0.87 | 0.444 | 0.828 | 0.346 | 0.646 | 0.742 | 0.642 | 0.63
K fixed | 0.374 | 2.44 | 3.21 | 1.92 | 1.49 | 0.85 | 1.05 | 1.07 | 1.26
L fixed | 0.278 | 0.831 | 0.536 | 0.754 | 0.697 | 0.958 | 0.673 | 0.689 | 0.625
M fixed | 0.382 | 0.869 | 0.542 | 0.967 | 0.995 | 1.01 | 0.894 | 0.86 | 0.725
N fixed | 0.569 | 0.828 | 1.08 | 0.81 | 1.17 | 1.01 | 1.17 | 1 | 0.916
P fixed | 10.5 | 0.464 | 0.63 | 0.829 | 1.49 | 2.71 | 1.8 | 1.61 | 1.45
Q fixed | 0.492 | 0.971 | 0.636 | 1.05 | 1.24 | 0.998 | 1.06 | 0.952 | 0.979
R fixed | 0.373 | 2 | 3.14 | 1.57 | 1.48 | 0.788 | 1.06 | 0.988 | 1.07
V fixed | 0.377 | 0.926 | 0.397 | 0.904 | 0.568 | 0.788 | 0.75 | 0.695 | 0.757
W fixed | 0.285 | 0.763 | 0.463 | 0.957 | 0.722 | 0.786 | 0.811 | 1.1 | 0.766
Y fixed | 0.258 | 1.01 | 0.49 | 0.836 | 0.805 | 0.817 | 0.763 | 0.825 | 1.01
pThr fixed | 0.518 | 0.434 | 0.412 | 0.38 | 0.408 | 0.721 | 0.956 | 0.995 | 0.939
pTyr fixed | 0.513 | 0.44 | 0.344 | 0.453 | 0.548 | 0.748 | 0.822 | 0.835 | 1.01
